# Results published in PMC11194109, “Structural basis for double-stranded RNA recognition by SID1” (Nucleic Acids Research, 2024).
# Target: the molecule itself
# Assay: cryo-EM structure; purified cSID1 in 25 mM HEPES pH 7.4, 150 mM NaCl, 0.01% GDN; apo and mixed with 100 uM 50-bp dsRNA; C2 symmetry imposed (the dsRNA complex also refined in C1)
protein,measurement,value
"Caenorhabditis elegans systemic RNAi-defective protein 1 (SID1) (natural protein, UniProt Q9GZC8 18-776, looked up, N-linked glycans (three glycosylation sites observed in BRD2), signal peptide in the construct; full-length cDNA in pCAG; His6 and FLAG tags were inserted after the signal peptide; also called cSID1; apo-cSID1; source: HEK293F, transiently transfected (pCAG), purified (anti-FLAG M2, Ni-NTA, SEC in GDN)) QNNSTTPSPIITSSNSSVLVFEISSKMKMIEKKLEANTVHVLRLELDQSFILDLTKVAAEIVDSSKYSKEDGVILEVTVSNGRDSFLLKLPTVYPNLKLYTDGKLLNPLVEQDFGAHRKRHRIGDPHFHQNLIVTVQSRLNADIDYRLHVTHLDRAQYDFLKFKTGQTTKTLSNQKLTFVKPIGFFLNCSEQNISQFHVTLYSEDDICANLITVPANESIYDRSVISDKTHNRRVLSFTKRADIFFTETEISMFKSFRIFVFIAPDDSGCSTNTSRKSFNEKKKISFEFKKLENQSYAVPTALMMIFLTTPCLLFLPIVINIIKNSRKLAPSQSNLISFSPVPSEQRDMDLSHDEQQNTSSELENNGEIPAAENQIVEEITAENQETSVEEGNREIQVKIPLKQDSLSLHGQMLQYPVAIILPVLMHTAIEFHKWTTSTMANRDEMCFHNHACARPLGELRAWNNIITNIGYTLYGAIFIVLSICRRGRHEYSHVFGTYECTLLDVTIGVFMVLQSIASATYHICPSDVAFQFDTPCIQVICGLLMVRQWFVRHESPSPAYTNILLVGVVSLNFLISAFSKTSYVRFIIAVIHVIVVGSICLAKERSLGSEKLKTRFFIMAFSMGNFAAIVMYLTLSAFHLNQIATYCFIINCIMYLMYYGCMKVLHSERITSKAKLCGALSLLAWAVAGFFFFQDDTDWTRSAAASRALNKPCLLLGFFGSHDLWHIFGALAGLFTFIFVSFVDDDLINTRKTSINIF",stoichiometry N,2
